Results reported in US20180162947A1 (UCB, published 2018).
Substitutions are numbered along the chain they refer to. In names and notes the source's numbering stands. Several values for one entry are separate records, joined by “and”; a condition that tells them apart may be missing. Identical values can stand only once. Each block holds one binder with its values, some of them ahead of it.

Columns and labels:
[1] = target: T1, recombinant human CSF-1R (form not stated) (human, UniProt P07333 20-512, limits assumed); experiment: BIAcore, purified antibody, mean
T1 construct: for the ELISA no species is stated; also called recombinant CSF-1R; recombinant CSF-1R protein
T1 sequence (P07333 20-512 limits assumed): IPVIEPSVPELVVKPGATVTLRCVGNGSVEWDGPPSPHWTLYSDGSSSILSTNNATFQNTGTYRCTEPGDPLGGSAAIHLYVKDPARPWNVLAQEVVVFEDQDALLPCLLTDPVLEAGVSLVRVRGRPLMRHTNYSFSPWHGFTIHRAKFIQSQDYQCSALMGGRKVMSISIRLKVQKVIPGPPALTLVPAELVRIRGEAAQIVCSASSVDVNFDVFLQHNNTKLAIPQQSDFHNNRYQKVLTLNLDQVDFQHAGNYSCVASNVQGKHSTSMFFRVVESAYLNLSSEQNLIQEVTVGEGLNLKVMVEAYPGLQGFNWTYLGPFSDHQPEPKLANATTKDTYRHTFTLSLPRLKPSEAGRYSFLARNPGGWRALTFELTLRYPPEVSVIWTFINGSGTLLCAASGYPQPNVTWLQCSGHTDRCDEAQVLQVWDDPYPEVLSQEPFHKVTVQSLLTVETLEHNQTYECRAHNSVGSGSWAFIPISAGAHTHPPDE

[2] = target: T2, human CSF-1R on cells (THP-1 cells, transfected HEK293F cells, primary human monocytes) (human, UniProt P07333 20-972); experiment: inhibition of CSF-1 binding to THP-1 cells
T2 construct: whole, on cells; also called hCSF-1R; cell-surface CSF-1R
T2 sequence (P07333 20-972): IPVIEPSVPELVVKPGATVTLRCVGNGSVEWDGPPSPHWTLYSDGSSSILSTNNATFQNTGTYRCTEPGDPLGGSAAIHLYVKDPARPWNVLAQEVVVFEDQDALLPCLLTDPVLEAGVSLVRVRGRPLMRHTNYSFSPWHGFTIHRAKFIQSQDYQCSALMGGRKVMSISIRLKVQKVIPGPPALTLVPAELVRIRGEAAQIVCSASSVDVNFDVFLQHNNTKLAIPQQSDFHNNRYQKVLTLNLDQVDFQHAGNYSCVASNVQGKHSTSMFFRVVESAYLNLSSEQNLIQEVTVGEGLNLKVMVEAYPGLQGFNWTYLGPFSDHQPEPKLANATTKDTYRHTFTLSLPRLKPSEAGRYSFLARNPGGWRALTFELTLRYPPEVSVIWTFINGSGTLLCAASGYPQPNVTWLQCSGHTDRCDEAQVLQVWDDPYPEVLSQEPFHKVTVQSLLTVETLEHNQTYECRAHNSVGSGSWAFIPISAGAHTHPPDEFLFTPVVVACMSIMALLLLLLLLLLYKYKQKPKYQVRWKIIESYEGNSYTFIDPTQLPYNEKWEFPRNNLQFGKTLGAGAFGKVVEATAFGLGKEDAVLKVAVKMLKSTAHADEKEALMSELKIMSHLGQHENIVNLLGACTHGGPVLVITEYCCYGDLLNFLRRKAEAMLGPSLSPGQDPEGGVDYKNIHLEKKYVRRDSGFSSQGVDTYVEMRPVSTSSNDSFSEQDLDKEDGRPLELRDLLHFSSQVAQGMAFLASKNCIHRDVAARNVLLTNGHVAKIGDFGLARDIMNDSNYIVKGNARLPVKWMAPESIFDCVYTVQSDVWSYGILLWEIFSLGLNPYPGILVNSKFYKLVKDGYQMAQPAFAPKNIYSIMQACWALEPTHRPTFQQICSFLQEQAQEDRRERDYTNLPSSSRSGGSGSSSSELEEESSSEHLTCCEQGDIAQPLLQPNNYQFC

[3] = target: T2, human CSF-1R on cells (THP-1 cells, …); experiment: cell-based or functional assay
[4] = target: T1, recombinant human CSF-1R (form not …); experiment: ELISA ligand-blocking assay, antibody pre-mixed with 100 ng/ml CSF-1 (competitor), plate-bound CSF-1R
Source text: (§1) This method is from here on referred to as the ‘ELISA ligand-blocking assay’.

[5] = target: T1, recombinant human CSF-1R (form not …); experiment: BIAcore, experiment 1 of 3
Protocol: (§2) The assay format was capture of the anti-CSF-1R antibodies by immobilised anti-human IgG,F(ab′)₂, then a titration of hCSF-1R/Fc over the captured surface. BIA (Biomolecular Interaction Analysis) was performed using a BIAcore 3000 (GE Healthcare Bio-Sciences AB). All experiments were performed at 25° C. An AffiniPure F(ab′)₂ fragment goat anti-human IgG, F(ab′)₂ fragment specific (Jackson ImmunoResearch), was immobilised on a CM5 Sensor Chip (GE Healthcare Bio-Sciences AB) via amine coupling chemistry to a level of ˜5000 response units (RU). HBS-EP buffer (10 mM HEPES, pH 7.4, 0.15M NaCl, 3 mM EDTA, 0.005% Surfactant P20, GE Healthcare Bio-Sciences AB) was used as the running buffer with a flow rate of 10 μl/min.

[6] = target: T1, recombinant human CSF-1R (form not …); experiment: ELISA ligand-blocking assay, antibody pre-mixed with 1 ng/ml CSF-1 (competitor), plate-bound CSF-1R
Source text: as §1

[7] = target: T1, recombinant human CSF-1R (form not …); experiment: BIAcore, purified antibody, experiment 2
[8] = target: T2, human CSF-1R on cells (THP-1 cells, …); experiment: cell-based or functional assay; remark: listed apart in the source
[9] = target: T1, recombinant human CSF-1R (form not …); experiment: ELISA ligand-blocking assay, antibody pre-mixed with 10 ng/ml CSF-1 (competitor), plate-bound CSF-1R
Source text: as §1

[10] = target: T1, recombinant human CSF-1R (form not …); experiment: BIAcore, humanisation stage, crude cell supernatant
[11] = target: T2, human CSF-1R on cells (THP-1 cells, …); experiment: quantitative flow cytometry on THP-1 cells, Alexa-488-labelled antibody
[12] = target: T1, recombinant human CSF-1R (form not …); experiment: BIAcore, recombinant CSF-1R protein
[13] = target: T1, recombinant human CSF-1R (form not …); experiment: BIAcore, experiment 3 of 3
Protocol: as §2

[14] = target: T1, recombinant human CSF-1R (form not …); experiment: BIAcore, DG/SG comparison, crude cell supernatant
[15] = target: T1, recombinant human CSF-1R (form not …); experiment: BIAcore, purified antibody, experiment 1
[16] = target: T2, human CSF-1R on cells (THP-1 cells, …); experiment: cell-based or functional assay; remark: listed apart in the source
[17] = target: T1, recombinant human CSF-1R (form not …); experiment: BIAcore, mean of 3 (fourth row, unlabelled)
Protocol: as §2

[18] = target: T3, recombinant human CSF-1R/Fc fusion protein (R&D Systems) (human, UniProt P07333 20-517); experiment: BIAcore 3000, antibody captured by anti-human IgG F(ab')2, hCSF-1R/Fc in solution, 25 C
T3 construct: extracellular domain; Bought from R&D Systems; also called hCSF-1R/Fc; not shown: Fc part of the bought fusion protein, not described
T3 sequence (P07333 20-517): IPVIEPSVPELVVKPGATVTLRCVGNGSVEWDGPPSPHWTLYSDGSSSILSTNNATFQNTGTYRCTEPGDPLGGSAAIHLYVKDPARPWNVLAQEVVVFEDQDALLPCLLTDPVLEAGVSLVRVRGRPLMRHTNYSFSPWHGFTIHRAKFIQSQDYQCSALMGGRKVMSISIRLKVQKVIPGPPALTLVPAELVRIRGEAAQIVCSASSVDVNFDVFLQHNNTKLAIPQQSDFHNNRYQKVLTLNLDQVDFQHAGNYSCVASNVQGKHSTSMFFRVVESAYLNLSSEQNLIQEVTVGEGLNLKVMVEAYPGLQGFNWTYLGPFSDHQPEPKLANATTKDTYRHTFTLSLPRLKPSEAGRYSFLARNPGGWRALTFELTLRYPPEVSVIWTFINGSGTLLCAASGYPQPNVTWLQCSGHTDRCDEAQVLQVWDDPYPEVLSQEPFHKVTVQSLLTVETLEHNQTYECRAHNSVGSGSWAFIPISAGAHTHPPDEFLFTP
Protocol: Antibodies were tested for their ability to bind CSF-1R in a BIAcore assay by measurement of binding kinetics to a purified recombinant CSF-1R/Fc fusion protein.
as §2
Recombinant human CSF-1R/Fc (R&D Systems) was passed over the captured anti-CSF-1R antibody at 5 nM at a flow rate of 30 ul/min for 5 min, then the flow rate was increased to 100 ul/min for 30 min for the dissociation phase. The injection at 5 nM was performed twice along with a corresponding buffer control. These sensorgrams were used to generate the dissociation rate. […] These sensorgrams were used to generate the association rate. The surface was regenerated at a flow rate of 10 ul/min by a 10 ul injection of 40 mM HCl followed by a 5 ul injection of 10 mM NaOH. Double referenced background subtracted binding curves were analysed using the BIAevaluation software (version 4.1) following standard procedures. Kinetic parameters were determined from the fitting algorithm.

[19] = target: T1, recombinant human CSF-1R (form not …); experiment: BIAcore, experiment 2 of 3
Protocol: as §2

[20] = target: T4, mouse CSF-1R (form not stated) (mouse, UniProt P09581 20-511, limits assumed); experiment: not described
T4 construct: also called murine CSF-1R
T4 sequence (looked up): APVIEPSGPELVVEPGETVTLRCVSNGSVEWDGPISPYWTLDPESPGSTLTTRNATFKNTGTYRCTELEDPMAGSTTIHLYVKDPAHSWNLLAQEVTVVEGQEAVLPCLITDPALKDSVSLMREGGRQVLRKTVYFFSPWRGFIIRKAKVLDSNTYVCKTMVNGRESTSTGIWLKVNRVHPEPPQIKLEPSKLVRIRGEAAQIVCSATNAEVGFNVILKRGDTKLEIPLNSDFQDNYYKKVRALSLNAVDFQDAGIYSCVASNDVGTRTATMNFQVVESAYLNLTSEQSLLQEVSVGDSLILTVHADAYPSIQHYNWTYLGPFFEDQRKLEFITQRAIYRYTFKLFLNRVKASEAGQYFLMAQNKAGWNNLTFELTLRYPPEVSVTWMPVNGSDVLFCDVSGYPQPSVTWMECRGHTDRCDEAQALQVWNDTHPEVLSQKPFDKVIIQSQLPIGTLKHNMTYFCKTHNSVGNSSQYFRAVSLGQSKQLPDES

Kd [1]: 4.3 pM
koff [1]: 9.3e-06 s⁻¹
kon [1]: 2.16e+06 M⁻¹ s⁻¹
IC50 [2]: 0.00289 µg/mL
IC50, IL-34-dependent human monocyte assay (MCP-1 by ELISA), 100 ng/ml IL-34, Donor 1 [3]: 0.0201 µg/mL
IC50, IL-34-dependent human monocyte assay (MCP-1 by ELISA), 100 ng/ml IL-34, Donor 2 [3]: 0.00979 µg/mL
IC50 [4]: 0.829 µg/mL
Kd [5]: 3.6 pM
koff [5]: 1.03e-05 s⁻¹
kon [5]: 2.83e+06 M⁻¹ s⁻¹
IC50 [6]: 0.0128 µg/mL
Kd [7]: 4.2 pM
koff [7]: 9.1e-06 s⁻¹
kon [7]: 2.16e+06 M⁻¹ s⁻¹
IC50, MCP-1 inhibition assay, Donor 1 [8]: 0.031 µg/mL
IC50, MCP-1 inhibition assay, Donor 2 [8]: 0.0057 µg/mL
IC50, MCP-1 inhibition assay, Donor 3 [8]: 0.0594 µg/mL
IC50, MCP-1 inhibition assay, Donor 4 [8]: 0.0417 µg/mL
IC50, MCP-1 inhibition assay, Donor 5 [8]: 0.0209 µg/mL
IC50, MCP-1 inhibition assay, Donor 6 [8]: 0.007 µg/mL
IC50 [9]: 0.0793 µg/mL
Kd [10]: 3.5 pM
koff [10]: 7.99e-06 s⁻¹
kon [10]: 2.31e+06 M⁻¹ s⁻¹
Kd [11]: 2200 pM
Kd [12]: 4.8 pM
Kd [13]: 3.6 pM
koff [13]: 9.51e-06 s⁻¹
kon [13]: 2.68e+06 M⁻¹ s⁻¹
Kd [14]: 2 pM
koff [14]: 8.53e-06 s⁻¹
kon [14]: 4.35e+06 M⁻¹ s⁻¹
Kd [15]: 4.4 pM
koff [15]: 9.49e-06 s⁻¹
kon [15]: 2.16e+06 M⁻¹ s⁻¹
mean IC50, MCP-1 inhibition assay, primary human monocytes, 100 ng/ml CSF-1 [16]: 0.0246 µg/mL
Kd [17]: 3.7 pM
koff [17]: 1.03e-05 s⁻¹
kon [17]: 2.77e+06 M⁻¹ s⁻¹
Kd [18]: 9.65 pM and 9.6 pM
koff [18]: 2.49e-05 s⁻¹
kon [18]: 2.58e+06 M⁻¹ s⁻¹
Kd [19]: 3.9 pM
koff [19]: 1.1e-05 s⁻¹
kon [19]: 2.79e+06 M⁻¹ s⁻¹
B1: chimeric antibody 969 (rat variable regions, human gamma-4 heavy chain constant region and human kappa chain constant region) (antibody, human IgG4, V domains shown)
VH: QVTLKESGPGILQPSQTLSLTCTFSGFSLTTYGMGVGWIRQPSGKGLEWLANIWWDDDKYYNPSLKNRLTISKDTSNNQAFLKLTNVHTSDSATYYCARIGPIKYPTAPYRYFDFWGPGTMVTVSS
VL: DIQMTQSPASLSASLGETVSIECLASEDIYDNLAWYQKKPGKSPHLLIYYASSLQDGVPSRFSGSGSGTQYSLKINSLESEDAATYFCLQDSEYPWTFGGGTKLELKR
modifications: Alexa-488 label in the cell-based affinity assay; not carried by the letters.
notes: Full-length human IgG4 (S241P)/kappa chimeric; also called Ab969

binding result [20]: no binding
B2: Ab969.g2 (969gH2gL7) (antibody, human IgG4 S228P, kappa, V domains shown)
VH: EVTLKESGPALVKPTQTLTLTCTFSGFSLTTYGMGVGWIRQPPGKALEWLANIWWDDDKYYNPSLKNRLTISKDTSKNQVVLTMTNMDPVDTATYYCARIGPIKYPTAPYRYFDFWGQGTMVTVSS
VL: DIQMTQSPSSLSASVGDRVTITCLASEDIYDNLAWYQQKPGKAPKLLIYYASSLQDGVPSRFSGSGSGTDYTLTISSLQPEDFATYYCLQDSEYPWTFGGGTKVEIKR
notes: Full-length humanised IgG4 (S241P), human kappa (Km3 allotype); also called 969gH2gL7 DG; Ab969.2

Kd [5]: 3.6 pM
koff [5]: 8.84e-06 s⁻¹
kon [5]: 2.43e+06 M⁻¹ s⁻¹
Kd [10]: 2.3 pM
koff [10]: 5.23e-06 s⁻¹
kon [10]: 2.27e+06 M⁻¹ s⁻¹
Kd [13]: 2.6 pM
koff [13]: 6.63e-06 s⁻¹
kon [13]: 2.54e+06 M⁻¹ s⁻¹
Kd [17]: 3.3 pM
koff [17]: 8.14e-06 s⁻¹
kon [17]: 2.47e+06 M⁻¹ s⁻¹
Kd [19]: 3.7 pM
koff [19]: 8.95e-06 s⁻¹
kon [19]: 2.44e+06 M⁻¹ s⁻¹
B3: 969gH2gL1 (antibody, human IgG4 S228P, kappa, name in Kabat numbering, V domains shown)
VH: B2 VH
VL: B2 VL with Q38K, Y87F
notes: Humanised IgG4 (S241P)/kappa; positions are Kabat; also called Ab969.g6

Kd [5]: 2.5 pM
koff [5]: 5e-06 s⁻¹
kon [5]: 1.99e+06 M⁻¹ s⁻¹
Kd [10]: 4.1 pM
koff [10]: 5e-06 s⁻¹
kon [10]: 1.23e+06 M⁻¹ s⁻¹
Kd [13]: 2.5 pM
koff [13]: 5e-06 s⁻¹
kon [13]: 1.97e+06 M⁻¹ s⁻¹
Kd [14]: 2.3 pM
koff [14]: 5e-06 s⁻¹
kon [14]: 2.18e+06 M⁻¹ s⁻¹
Kd [17]: 2.8 pM
koff [17]: 5.55e-06 s⁻¹
kon [17]: 1.97e+06 M⁻¹ s⁻¹
Kd [19]: 3.4 pM
koff [19]: 6.65e-06 s⁻¹
kon [19]: 1.94e+06 M⁻¹ s⁻¹
B4: 969gH2gL8 (antibody, human IgG4 S228P, kappa, name in Kabat numbering, V domains shown)
VH: B2 VH
VL: B2 VL with Y71F
notes: Humanised IgG4 (S241P)/kappa, no donor residues; position is Kabat; also called Ab969.g4

Kd [5]: 3 pM
koff [5]: 7.73e-06 s⁻¹
kon [5]: 2.57e+06 M⁻¹ s⁻¹
IC50, MCP-1 inhibition assay, Donor 1 [8]: 0.0463 µg/mL
IC50, MCP-1 inhibition assay, Donor 2 [8]: 0.0061 µg/mL
IC50 ratio against chimeric 969.g0 (number in parentheses), Donor 1 [8]: 1.5 ratio
IC50 ratio against chimeric 969.g0 (number in parentheses), Donor 2 [8]: 1.1 ratio
Mean chimeric/graft IC50 ratio [8]: 1.3 ratio
Kd [10]: 4.4 pM
koff [10]: 9.64e-06 s⁻¹
kon [10]: 2.2e+06 M⁻¹ s⁻¹
Kd [13]: 4.6 pM
koff [13]: 1.15e-05 s⁻¹
kon [13]: 2.52e+06 M⁻¹ s⁻¹
Kd [17]: 3.7 pM
koff [17]: 9.55e-06 s⁻¹
kon [17]: 2.56e+06 M⁻¹ s⁻¹
Kd [19]: 3.6 pM
koff [19]: 9.41e-06 s⁻¹
kon [19]: 2.6e+06 M⁻¹ s⁻¹
B5: 969gH2gL4 (antibody, human IgG4 S228P, kappa, name in Kabat numbering, V domains shown)
VH: B2 VH
VL: B2 VL with Q38K
notes: Humanised IgG4 (S241P)/kappa; positions are Kabat; also called Ab969.g7

Kd [5]: 3.2 pM
koff [5]: 8.47e-06 s⁻¹
kon [5]: 2.65e+06 M⁻¹ s⁻¹
Kd [10]: ≤ 2.4 pM
koff [10]: ≤ 5e-06 s⁻¹
kon [10]: 2.04e+06 M⁻¹ s⁻¹
Kd [13]: 3.9 pM
koff [13]: 9.88e-06 s⁻¹
kon [13]: 2.51e+06 M⁻¹ s⁻¹
Kd [17]: 3.2 pM
koff [17]: 8.13e-06 s⁻¹
kon [17]: 2.58e+06 M⁻¹ s⁻¹
Kd [19]: 2.4 pM
koff [19]: 6.04e-06 s⁻¹
kon [19]: 2.57e+06 M⁻¹ s⁻¹
B6: 969gH1gL1 (antibody, human IgG4 S228P, kappa, name in Kabat numbering, V domains shown)
VH: B2 VH with V80A
VL: B2 VL with Q38K, Y87F
notes: Humanised IgG4 (S241P)/kappa; positions are Kabat; also called Ab969.g1

Kd [14]: 2 pM
koff [14]: 5e-06 s⁻¹
kon [14]: 2.54e+06 M⁻¹ s⁻¹
B7: 969gH2gL7 SG (antibody, human IgG4 S228P, kappa, V domains shown)
VH: B2 VH
VL: B2 VL with D56S
notes: Humanised IgG4 (S241P)/kappa; also called 969H2gL7(SG)
